{
  "source": "patent US20260184748A1",
  "about": "(University of Pennsylvania, published 2026)",
  "assay_in_all_cases": "cell-based or functional assay",
  "key": {"CALCRL-RAMP2": {"biological_target": "CALCRL-RAMP2 (UniProt Q16602 23-461; O60895 43-175)", "sequence (Q16602 23-461 limits assumed, chain 1 of 2)": "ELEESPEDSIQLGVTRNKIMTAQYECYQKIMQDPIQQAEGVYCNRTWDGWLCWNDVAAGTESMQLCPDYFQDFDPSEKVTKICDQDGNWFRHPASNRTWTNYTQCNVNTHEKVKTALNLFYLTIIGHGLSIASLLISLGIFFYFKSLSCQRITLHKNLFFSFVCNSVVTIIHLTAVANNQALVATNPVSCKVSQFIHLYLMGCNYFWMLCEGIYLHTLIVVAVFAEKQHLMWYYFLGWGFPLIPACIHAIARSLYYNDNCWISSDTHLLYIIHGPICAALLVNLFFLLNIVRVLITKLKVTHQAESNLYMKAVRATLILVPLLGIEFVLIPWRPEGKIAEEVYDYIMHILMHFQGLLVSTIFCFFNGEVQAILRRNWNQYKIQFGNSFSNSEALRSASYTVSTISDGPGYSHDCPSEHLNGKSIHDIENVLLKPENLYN", "sequence (O60895 43-175 limits assumed, chain 2 of 2)": "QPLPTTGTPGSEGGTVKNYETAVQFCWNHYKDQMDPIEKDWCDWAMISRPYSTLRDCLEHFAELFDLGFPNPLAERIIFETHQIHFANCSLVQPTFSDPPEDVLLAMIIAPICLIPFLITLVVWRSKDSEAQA"}, "MLNR": {"biological_target": "MLNR (UniProt O43193 1-412)", "sequence (O43193 whole entry)": "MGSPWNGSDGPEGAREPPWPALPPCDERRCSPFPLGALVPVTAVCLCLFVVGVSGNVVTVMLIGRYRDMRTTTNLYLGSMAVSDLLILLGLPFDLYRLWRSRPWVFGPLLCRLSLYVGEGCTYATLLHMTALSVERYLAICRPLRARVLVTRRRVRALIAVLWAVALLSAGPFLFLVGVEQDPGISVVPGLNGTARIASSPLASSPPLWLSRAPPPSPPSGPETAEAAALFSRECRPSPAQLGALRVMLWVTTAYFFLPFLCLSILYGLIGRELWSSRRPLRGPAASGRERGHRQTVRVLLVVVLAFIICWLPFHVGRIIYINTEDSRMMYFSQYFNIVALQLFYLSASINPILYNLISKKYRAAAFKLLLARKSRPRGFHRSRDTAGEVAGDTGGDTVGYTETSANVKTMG"}, "CCKAR": {"biological_target": "T1, CCKAR (UniProt P32238 1-428)", "T1 sequence (looked up)": "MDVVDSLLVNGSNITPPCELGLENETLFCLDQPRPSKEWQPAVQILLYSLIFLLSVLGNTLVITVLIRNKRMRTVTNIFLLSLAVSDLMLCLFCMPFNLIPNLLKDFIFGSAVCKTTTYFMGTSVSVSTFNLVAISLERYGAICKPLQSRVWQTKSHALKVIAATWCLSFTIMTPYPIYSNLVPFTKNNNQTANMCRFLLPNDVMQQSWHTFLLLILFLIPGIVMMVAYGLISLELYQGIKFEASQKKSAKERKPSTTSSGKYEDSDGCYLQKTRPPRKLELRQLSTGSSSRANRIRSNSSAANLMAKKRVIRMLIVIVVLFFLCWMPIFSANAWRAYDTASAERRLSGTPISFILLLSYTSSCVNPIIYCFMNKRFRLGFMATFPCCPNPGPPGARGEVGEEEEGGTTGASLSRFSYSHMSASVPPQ"}, "CXCR7": {"biological_target": "CXCR7 (UniProt P25106 1-362)", "sequence (P25106 whole entry)": "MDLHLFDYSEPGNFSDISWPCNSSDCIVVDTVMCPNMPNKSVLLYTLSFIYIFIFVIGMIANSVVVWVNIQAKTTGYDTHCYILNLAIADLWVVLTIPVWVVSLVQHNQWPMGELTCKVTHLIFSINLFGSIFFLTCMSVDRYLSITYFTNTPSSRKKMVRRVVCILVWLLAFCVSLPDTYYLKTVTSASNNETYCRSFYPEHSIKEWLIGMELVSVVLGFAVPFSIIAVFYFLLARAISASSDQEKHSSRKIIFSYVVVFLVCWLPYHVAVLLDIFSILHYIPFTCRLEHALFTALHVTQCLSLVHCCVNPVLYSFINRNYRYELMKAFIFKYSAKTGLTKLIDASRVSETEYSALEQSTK"}, "GLP1R": {"biological_target": "GLP1R (UniProt P43220 24-463)", "sequence (P43220 24-463 limits assumed)": "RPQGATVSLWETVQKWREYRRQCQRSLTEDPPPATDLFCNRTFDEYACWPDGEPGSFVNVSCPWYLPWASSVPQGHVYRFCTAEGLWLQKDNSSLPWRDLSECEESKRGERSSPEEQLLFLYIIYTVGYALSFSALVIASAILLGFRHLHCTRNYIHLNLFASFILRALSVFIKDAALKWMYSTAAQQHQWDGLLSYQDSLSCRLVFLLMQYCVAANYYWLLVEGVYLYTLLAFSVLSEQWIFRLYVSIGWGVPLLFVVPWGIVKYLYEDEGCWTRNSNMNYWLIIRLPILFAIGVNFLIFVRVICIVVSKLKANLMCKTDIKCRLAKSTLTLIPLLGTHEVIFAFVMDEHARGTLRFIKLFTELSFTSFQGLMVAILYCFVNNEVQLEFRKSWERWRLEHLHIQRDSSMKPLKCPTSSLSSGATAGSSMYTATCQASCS"}, "PTGER2": {"biological_target": "PTGER2 (UniProt P43116 1-358)", "sequence (P43116 whole entry)": "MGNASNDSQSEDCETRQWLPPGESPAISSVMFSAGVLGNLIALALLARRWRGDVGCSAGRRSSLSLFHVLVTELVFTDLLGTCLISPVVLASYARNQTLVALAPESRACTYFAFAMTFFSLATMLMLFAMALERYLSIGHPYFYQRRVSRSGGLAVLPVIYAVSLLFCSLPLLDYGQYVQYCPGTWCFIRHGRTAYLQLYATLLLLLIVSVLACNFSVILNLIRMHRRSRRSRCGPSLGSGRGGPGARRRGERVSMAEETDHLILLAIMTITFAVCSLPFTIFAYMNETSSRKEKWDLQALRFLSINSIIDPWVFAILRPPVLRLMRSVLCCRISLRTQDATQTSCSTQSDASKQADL"}, "LHCGR": {"biological_target": "LHCGR (UniProt P22888 27-699)", "sequence (P22888 27-699 limits assumed)": "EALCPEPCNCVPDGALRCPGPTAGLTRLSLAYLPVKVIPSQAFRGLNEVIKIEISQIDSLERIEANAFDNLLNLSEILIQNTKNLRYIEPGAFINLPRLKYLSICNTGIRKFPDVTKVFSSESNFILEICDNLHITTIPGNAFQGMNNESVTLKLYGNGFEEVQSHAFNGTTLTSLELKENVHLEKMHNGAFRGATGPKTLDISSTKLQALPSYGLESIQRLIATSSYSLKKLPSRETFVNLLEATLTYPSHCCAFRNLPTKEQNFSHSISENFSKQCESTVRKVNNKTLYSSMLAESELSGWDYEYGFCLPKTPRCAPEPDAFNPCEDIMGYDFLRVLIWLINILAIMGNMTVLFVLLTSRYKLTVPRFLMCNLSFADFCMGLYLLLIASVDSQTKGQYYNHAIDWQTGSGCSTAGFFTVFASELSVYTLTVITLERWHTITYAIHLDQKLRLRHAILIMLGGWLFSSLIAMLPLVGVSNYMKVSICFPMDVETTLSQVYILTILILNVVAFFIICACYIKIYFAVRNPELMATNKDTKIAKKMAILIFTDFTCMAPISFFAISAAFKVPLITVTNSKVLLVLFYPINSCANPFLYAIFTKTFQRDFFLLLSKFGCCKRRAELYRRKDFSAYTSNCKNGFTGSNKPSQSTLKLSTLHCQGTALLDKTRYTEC"}, "GPR35": {"biological_target": "GPR35 (UniProt Q9HC97 1-309, limits assumed)", "sequence (Q9HC97 whole entry)": "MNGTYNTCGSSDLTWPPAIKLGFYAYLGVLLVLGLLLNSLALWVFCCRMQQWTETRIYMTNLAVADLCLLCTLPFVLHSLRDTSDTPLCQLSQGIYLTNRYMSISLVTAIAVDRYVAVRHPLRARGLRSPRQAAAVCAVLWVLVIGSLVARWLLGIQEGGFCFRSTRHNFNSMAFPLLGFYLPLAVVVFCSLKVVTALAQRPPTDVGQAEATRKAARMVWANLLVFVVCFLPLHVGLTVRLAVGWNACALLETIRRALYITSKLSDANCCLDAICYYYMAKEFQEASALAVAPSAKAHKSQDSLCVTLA"}, "NPBWR1": {"biological_target": "T2, NPBWR1 (UniProt P48145 1-328)", "T2 sequence (looked up)": "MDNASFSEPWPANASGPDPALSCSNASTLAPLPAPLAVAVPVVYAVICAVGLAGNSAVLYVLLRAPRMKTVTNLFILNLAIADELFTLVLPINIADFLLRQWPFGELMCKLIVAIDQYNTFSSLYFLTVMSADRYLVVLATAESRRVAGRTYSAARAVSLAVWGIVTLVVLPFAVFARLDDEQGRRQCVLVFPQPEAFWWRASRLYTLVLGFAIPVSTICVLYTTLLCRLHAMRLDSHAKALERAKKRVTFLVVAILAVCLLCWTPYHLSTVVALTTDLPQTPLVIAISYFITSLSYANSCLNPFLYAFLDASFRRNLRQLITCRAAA"}, "CNR2": {"biological_target": "CNR2 (UniProt P34972 1-360)", "sequence (P34972 whole entry)": "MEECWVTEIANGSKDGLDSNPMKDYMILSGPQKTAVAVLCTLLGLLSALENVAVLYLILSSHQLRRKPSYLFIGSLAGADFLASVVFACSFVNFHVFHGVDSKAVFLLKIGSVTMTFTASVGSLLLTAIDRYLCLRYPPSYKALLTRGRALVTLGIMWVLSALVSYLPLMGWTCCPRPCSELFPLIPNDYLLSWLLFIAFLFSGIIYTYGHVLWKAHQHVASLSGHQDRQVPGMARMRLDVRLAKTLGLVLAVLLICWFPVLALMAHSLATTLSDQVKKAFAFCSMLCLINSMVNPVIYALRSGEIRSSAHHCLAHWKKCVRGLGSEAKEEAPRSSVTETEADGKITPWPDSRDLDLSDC"}, "CCR10": {"biological_target": "T3, CCR10 (UniProt P46092 1-362)", "T3 sequence (looked up)": "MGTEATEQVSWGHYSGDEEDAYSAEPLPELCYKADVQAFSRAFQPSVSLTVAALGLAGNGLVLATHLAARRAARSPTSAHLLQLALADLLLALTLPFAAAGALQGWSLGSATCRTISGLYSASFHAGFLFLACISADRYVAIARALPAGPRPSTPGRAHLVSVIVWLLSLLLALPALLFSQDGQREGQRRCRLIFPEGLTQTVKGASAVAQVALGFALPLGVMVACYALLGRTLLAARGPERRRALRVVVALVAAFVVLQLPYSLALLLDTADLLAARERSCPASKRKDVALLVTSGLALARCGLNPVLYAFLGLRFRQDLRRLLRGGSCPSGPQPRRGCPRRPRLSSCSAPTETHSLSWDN"}, "SSTR2": {"biological_target": "SSTR2 (UniProt P30874 1-369)", "sequence (P30874 whole entry)": "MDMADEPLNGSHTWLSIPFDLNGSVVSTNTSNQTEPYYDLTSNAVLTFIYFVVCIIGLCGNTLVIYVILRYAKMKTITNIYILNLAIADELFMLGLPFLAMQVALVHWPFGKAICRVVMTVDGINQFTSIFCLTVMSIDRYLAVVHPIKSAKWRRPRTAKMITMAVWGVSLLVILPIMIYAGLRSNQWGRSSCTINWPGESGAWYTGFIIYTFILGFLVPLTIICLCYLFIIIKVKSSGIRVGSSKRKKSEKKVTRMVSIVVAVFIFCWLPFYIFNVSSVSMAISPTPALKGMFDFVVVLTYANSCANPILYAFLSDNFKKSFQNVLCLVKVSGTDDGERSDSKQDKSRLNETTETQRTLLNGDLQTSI"}, "CXCR3": {"biological_target": "T4, CXCR3 (UniProt P49682 1-368)", "T4 sequence (looked up)": "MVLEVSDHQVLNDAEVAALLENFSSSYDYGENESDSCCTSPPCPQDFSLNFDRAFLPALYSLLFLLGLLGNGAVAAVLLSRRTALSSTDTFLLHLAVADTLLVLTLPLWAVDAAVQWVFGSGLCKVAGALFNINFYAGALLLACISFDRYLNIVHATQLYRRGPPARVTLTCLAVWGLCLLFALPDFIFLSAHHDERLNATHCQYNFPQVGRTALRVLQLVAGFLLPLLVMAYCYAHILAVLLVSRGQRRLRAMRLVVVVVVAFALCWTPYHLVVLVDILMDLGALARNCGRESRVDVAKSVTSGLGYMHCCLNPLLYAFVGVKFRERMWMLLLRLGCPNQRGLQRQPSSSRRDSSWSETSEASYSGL"}, "AGTR1": {"biological_target": "T5, AGTR1 (UniProt P30556 1-359)", "T5 sequence (looked up)": "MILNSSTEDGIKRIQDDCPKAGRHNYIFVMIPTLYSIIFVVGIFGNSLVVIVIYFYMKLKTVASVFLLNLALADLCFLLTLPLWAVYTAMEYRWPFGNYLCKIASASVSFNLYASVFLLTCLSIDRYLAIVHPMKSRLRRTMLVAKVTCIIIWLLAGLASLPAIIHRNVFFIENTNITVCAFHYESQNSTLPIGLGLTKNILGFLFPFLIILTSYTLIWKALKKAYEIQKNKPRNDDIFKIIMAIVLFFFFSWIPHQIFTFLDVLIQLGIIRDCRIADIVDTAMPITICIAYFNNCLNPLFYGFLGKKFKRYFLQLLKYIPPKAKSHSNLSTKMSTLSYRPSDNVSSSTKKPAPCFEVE"}, "CNR1": {"biological_target": "CNR1 (UniProt P21554 1-472)", "sequence (P21554 whole entry)": "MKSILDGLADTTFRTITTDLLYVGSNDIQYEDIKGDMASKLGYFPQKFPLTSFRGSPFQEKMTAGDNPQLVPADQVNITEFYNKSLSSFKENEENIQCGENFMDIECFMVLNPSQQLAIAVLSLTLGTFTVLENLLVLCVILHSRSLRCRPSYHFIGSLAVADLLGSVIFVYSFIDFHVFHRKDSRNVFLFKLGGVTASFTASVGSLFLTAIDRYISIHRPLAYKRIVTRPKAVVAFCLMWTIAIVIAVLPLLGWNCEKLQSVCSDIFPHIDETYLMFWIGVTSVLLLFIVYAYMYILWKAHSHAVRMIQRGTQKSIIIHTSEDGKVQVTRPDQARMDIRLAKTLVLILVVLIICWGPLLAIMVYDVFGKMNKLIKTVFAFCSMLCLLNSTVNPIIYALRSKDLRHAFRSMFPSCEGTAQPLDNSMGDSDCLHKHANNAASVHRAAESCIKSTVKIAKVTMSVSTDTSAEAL"}},
  "note": "Where no end group is shown, it is not given here.",
  "data": [
    {"binder": "QATVGDVNTDRPGLLDLK (also: synthesised on Rink amide resin, C-terminal amide not given here outright)", "note": "[octadecaneuropeptide (ODN)]", "values": [
      {"measurement": "% Activity, arrestin, antagonist mode, 2.5 uM", "setting": "CALCRL-RAMP2", "value": -11.6, "unit": "%"},
      {"measurement": "% Activity, arrestin, antagonist mode, 2.5 uM", "setting": "MLNR", "value": -5.5, "unit": "%"},
      {"measurement": "% Activity, arrestin, antagonist mode, 2.5 uM", "setting": "CCKAR", "value": -17.2, "unit": "%"},
      {"measurement": "% Activity, arrestin, antagonist mode, 2.5 uM", "setting": "CXCR7", "value": -9.6, "unit": "%"},
      {"measurement": "% Activity, arrestin, antagonist mode, 2.5 uM", "setting": "GLP1R", "value": -11, "unit": "%"},
      {"measurement": "% Activity, arrestin, antagonist mode, 2.5 uM", "setting": "PTGER2", "value": 2.1, "unit": "%"},
      {"measurement": "% Activity, arrestin, antagonist mode, 2.5 uM", "setting": "LHCGR", "value": 7.2, "unit": "%"},
      {"measurement": "% Activity, arrestin, antagonist mode, 2.5 uM", "setting": "GPR35", "value": -12.2, "unit": "%"},
      {"measurement": "% Activity, arrestin, antagonist mode, 2.5 uM", "setting": "NPBWR1", "value": -15, "unit": "%"},
      {"measurement": "% Activity, arrestin, antagonist mode, 2.5 uM", "setting": "CNR2", "value": 3.6, "unit": "%"},
      {"measurement": "% Activity, arrestin, antagonist mode, 2.5 uM", "setting": "CCR10", "value": -16.6, "unit": "%"},
      {"measurement": "% Activity, arrestin, antagonist mode, 2.5 uM", "setting": "SSTR2", "value": -20.5, "unit": "%"},
      {"measurement": "% Activity, arrestin, antagonist mode, 2.5 uM", "setting": "CXCR3", "value": -7.5, "unit": "%"},
      {"measurement": "% Activity, arrestin, antagonist mode, 2.5 uM", "setting": "AGTR1", "value": -8.5, "unit": "%"},
      {"measurement": "% Activity, arrestin, antagonist mode, 2.5 uM", "setting": "CNR1", "value": -37.5, "unit": "%"}
    ]}
  ]
}
